Laboratory results from patent publication US20250319163A1, “TREATMENT OF TYPE 2 DIABETES MELLITUS” (SANOFI, priority 2019, published 2025).

Legend:
[1] = tested on: Japanese patients with type 2 diabetes mellitus inadequately controlled on oral antidiabetic drugs; test: EFC14114: mean change in HbA1c from baseline to Week 26; assay type: in vivo, human; conditions: on-treatment period, mITT population
[2] = tested on: Japanese patients with type 2 diabetes mellitus inadequately controlled on oral antidiabetic drugs; test: EFC14114: mean change in fasting plasma glucose from baseline to Week 26; assay type: in vivo, human; conditions: mITT population, MMRM
[3] = tested on: Japanese patients with type 2 diabetes mellitus inadequately controlled on oral antidiabetic drugs; test: EFC14114: mean change in 2-hour postprandial plasma glucose during a standardized meal test; assay type: in vivo, human; conditions: mITT population, ANCOVA, LOCF
[4] = tested on: Japanese patients with type 2 diabetes mellitus inadequately controlled on oral antidiabetic drugs; test: EFC14114: documented symptomatic hypoglycemia; assay type: in vivo, human; conditions: plasma glucose ≤70 mg/dL [[…]], on-treatment period; for Documented symptomatic hypoglycemia: patients with events, %: Safety population
[5] = tested on: Japanese patients with type 2 diabetes mellitus inadequately controlled on oral antidiabetic drugs; test: EFC14114: treatment-emergent adverse events; conditions: Safety population; for Patients with any TEAE, %: overview of adverse event profile
[6] = SGLT2 inhibitor use at screening: No
[7] = SGLT2 inhibitor use at screening: Yes

In the case of “Gly(A21)-Arg(B31)-Arg(B32) human insulin [Insulin Glargine]”, the “Mean change in HbA1c from baseline to Week 26, LSMean (SE)” value [1, 6] was −0.83 (0.047) %, the “Mean change in HbA1c from baseline to Week 26, LSMean (SE)” value [1, 7] was −0.49 (0.091) % and the “Mean change in fasting plasma glucose from baseline to Week 26, LSMean (SE)” value [2, 6] was −1.46 (0.104) mmol/L. For the same substance, the “Mean change in fasting plasma glucose from baseline to Week 26, LSMean (SE)” value [2, 7] was −1.01 (0.205) mmol/L, the “Mean change in 2-hour postprandial plasma glucose during a standardized meal test from baseline to Week 26, LSMean (SE)” value [3, 6] was −1.29 (0.185) mmol/L and the “Mean change in 2-hour postprandial plasma glucose during a standardized meal test from baseline to Week 26, LSMean (SE)” value [3, 7] was −1.38 (0.363) mmol/L. The “Documented symptomatic hypoglycemia: Number of events” value [4, 6] was 62, the “Documented symptomatic hypoglycemia: Number of events per patient year” value [4, 6] was 0.61 and the “Documented symptomatic hypoglycemia: Number of patients with events per patient year” value [4, 6] was 0.28. For the same substance, the “Documented symptomatic hypoglycemia: patients with events, %” value [4, 6] was 14.1%, the “Documented symptomatic hypoglycemia: Number of events” value [4, 7] was 8 and the “Documented symptomatic hypoglycemia: Number of events per patient year” value [4, 7] was 0.29. For the same substance, the “Documented symptomatic hypoglycemia: Number of patients with events per patient year” value [4, 7] was 0.11, the “Documented symptomatic hypoglycemia: patients with events, %” value [4, 7] was 5.4% and the “Patients with TEAE: Any class, %” value [5, 6] was “(63.4%)”. For the same substance, the “Patients with TEAE: Back pain (PT), %” value [5, 6] was “(2.9%)”, the “Patients with TEAE: Constipation (PT), %” value [5, 6] was “(1.5%)” and the “Patients with TEAE: Dental caries (PT), %” value [5, 6] was “(2.4%)”. For the same substance, the “Patients with TEAE: Diarrhoea (PT), %” value [5, 6] was “(2.9%)”, the “Patients with TEAE: Dizziness (PT), %” value [5, 6] was “(3.4%)” and the “Patients with TEAE: Dyspepsia (PT), %” value [5, 6] was “(0.5%)”. The “Patients with TEAE: Fatigue (PT), %” value [5, 6] was “(2.0%)”, the “Patients with TEAE: Gastrointestinal disorders (SOC), %” value [5, 6] was “(15.6%)” and the “Patients with TEAE: General disorders and administration site conditions (SOC), %” value [5, 6] was “(7.3%)”. For the same substance, the “Patients with TEAE: Headache (PT), %” value [5, 6] was “(2.0%)”, the “Patients with TEAE: Hyperhidrosis (PT), %” value [5, 6] was “(2.9%)” and the “Patients with TEAE: Infections and infestations (SOC), %” value [5, 6] was “(35.6%)”. For the same substance, the “Patients with TEAE: Influenza (PT), %” value [5, 6] was “(1.5%)”, the “Patients with TEAE: Metabolism and nutrition disorders (SOC), %” value [5, 6] was “(2.9%)” and the “Patients with TEAE: Musculoskeletal and connective tissue disorders (SOC), %” value [5, 6] was “(12.2%)”. The “Patients with TEAE: Nasopharyngitis (PT), %” value [5, 6] was “(25.4%)”, the “Patients with TEAE: Nausea (PT), %” value [5, 6] was “(1.5%)” and the “Patients with TEAE: Nervous system disorders (SOC), %” value [5, 6] was “(9.3%)”. For the same substance, the “Patients with TEAE: Pharyngitis (PT), %” value [5, 6] was “(1.0%)”, the “Patients with TEAE: Skin and subcutaneous tissue disorders (SOC), %” value [5, 6] was “(9.8%)” and the “Patients with any TEAE leading to permanent treatment discontinuation, %” value [5, 6] was 0.5%. The “Patients with any serious TEAE, %” value [5, 6] was 3.4%, the “Patients with TEAE: Any class, %” value [5, 7] was “(64.3%)” and the “Patients with TEAE: Back pain (PT), %” value [5, 7] was “(5.4%)”. For the same substance, the “Patients with TEAE: Dental caries (PT), %” value [5, 7] was “(1.8%)”, the “Patients with TEAE: Gastrointestinal disorders (SOC), %” value [5, 7] was “(12.5%)” and the “Patients with TEAE: General disorders and administration site conditions (SOC), %” value [5, 7] was “(5.4%)”. The “Patients with TEAE: Headache (PT), %” value [5, 7] was “(5.4%)”, the “Patients with TEAE: Hyperhidrosis (PT), %” value [5, 7] was “(1.8%)” and the “Patients with TEAE: Infections and infestations (SOC), %” value [5, 7] was “(33.9%)”. The “Patients with TEAE: Influenza (PT), %” value [5, 7] was “(1.8%)”, the “Patients with TEAE: Metabolism and nutrition disorders (SOC), %” value [5, 7] was “(1.8%)” and the “Patients with TEAE: Musculoskeletal and connective tissue disorders (SOC), %” value [5, 7] was “(12.5%)”. The “Patients with TEAE: Nasopharyngitis (PT), %” value [5, 7] was “(17.9%)”, the “Patients with TEAE: Nausea (PT), %” value [5, 7] was “(3.6%)” and the “Patients with TEAE: Nervous system disorders (SOC), %” value [5, 7] was “(10.7%)”. For the same substance, the “Patients with TEAE: Pharyngitis (PT), %” value [5, 7] was “(5.4%)”, the “Patients with TEAE: Skin and subcutaneous tissue disorders (SOC), %” value [5, 7] was “(8.9%)” and the “Patients with any TEAE leading to permanent treatment discontinuation, %” value [5, 7] was 1.8%. The “Patients with any serious TEAE, %” value [5, 7] was 1.8%, the “Patients with any TEAE, %” value [5, 6] was 63.4% and the “Patients with any TEAE, %” value [5, 7] was 64.3%.
